Measurements published in PMC8442874.

Molecular target: Soc-SpyCatcher fusion protein (displayed on T4 phage: T4-SpyCatcher phage) (bacteriophage T4)
Assay: co-sedimentation

SUMO-RBD-SpyTag fusion protein, refolded (from UniProt P0DTC2 319-545) (domain or fragment)
copies per capsid (rRBD molecules per capsid): 300
